Laboratory results as given in article PMC3002026 (The Journal of Cell Biology, 2010).

Biological target: the molecule itself
Experiment: AUC

B1: Mdv1 CC^231–299 (domain or fragment, yeast)
chain: GPQTLVNSLEFLNIQKNSTLSEIRDIEVEVENLRQKKEKLLGKIANIEQNQLLLEDNLKQIDDRLDFLEEY
- stoichiometry N: 1.95
